# Results as given in paper PMC2150914.
# Molecular target: taxol-stabilized microtubules polymerized in Xenopus egg extract (Xenopus (endogenous in Xenopus egg extract))
# Experiment: co-sedimentation
substance,measurement,value
"X-p21-activated kinase (PAK)5, endogenous (natural protein)",percent bound,< 70%
